Drawing on patent EP0607332B1, this text covers inhibition of allogeneic T cell activation by normal skin epidermal cells, 50 ug per ml antibody and inhibition of autologous T cell proliferation ([3H]TdR incorporation) in response to lesional psoriatic epidermis, 50 ug/ml antibody, against isotype-matched control for one substance.

The experiment deals with CD2 (human) (UniProt P06729). Briefly: cell-based or functional assay.
UniProt P06729, sequence (P06729 25-351 limits assumed, form in doubt): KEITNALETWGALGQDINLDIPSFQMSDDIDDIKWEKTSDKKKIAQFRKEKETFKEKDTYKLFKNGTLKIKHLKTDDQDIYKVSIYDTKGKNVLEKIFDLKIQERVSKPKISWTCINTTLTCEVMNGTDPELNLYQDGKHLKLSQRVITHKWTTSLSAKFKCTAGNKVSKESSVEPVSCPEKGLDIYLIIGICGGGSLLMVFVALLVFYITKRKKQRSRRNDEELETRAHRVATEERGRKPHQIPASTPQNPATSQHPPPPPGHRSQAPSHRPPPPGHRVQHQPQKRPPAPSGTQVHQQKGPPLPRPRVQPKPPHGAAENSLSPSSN

Substance anti-CD2 monoclonal antibody TS2/18 came in with an inhibition of allogeneic T cell activation by normal skin epidermal cells, 50 ug per ml antibody of 40% and an inhibition of autologous T cell proliferation ([3H]TdR incorporation) in response to lesional psoriatic epidermis, 50 ug/ml antibody, against isotype-matched control of 60%.
